Here are results for 41 sequences from the nanobody polyreactivity screen of Harvey et al. (2022).

This series is described as follows: yeast display, Sf9 membrane polyspecificity reagent, FACS + sequencing; frameworks hold sequencing errors. Put shortly: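 Galactose induction of a Saccharomyces cerevisiae BJ5465 synthetic nanobody display library ran 36–48 hours. The cells were then stained for 1 hour at 4 °C with 10% biotinylated, detergent-solubilized Sf9 membrane reagent, pulled down on streptavidin microbeads and FACS-sorted into low and high (top ~1%) gates on expression and reagent-binding fluorescence. Labels for polyreactivity follow the gate of origin.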
As to “QVQLVESGGGLVQAGGSLRLSCAASGITFKGYTMGWYRQAPGKEREFVAAISWGGGRTYYADSVKGRFTISRDNAKNTVYLQMNSLKPEDTAVYYCNGAPYTRALQGEFDYWGQGTQVTVSS”, the “polyreactivity (PSR sort gate)” value is reported as “high polyreactivity”.
Turning to “QVQLVESGGGLVQAGGSLRLSCAASGITFKLNAMGWYRQAPGKERELVAAISYNGVRTYYADSVKGRFTISRDNAKNTVYLQMNRLKPEDTAVYYCAALLRGQDRTMDYWGQGTQVTVSS”, the “polyreactivity (PSR sort gate)” value is “high polyreactivity”.
“QVQLVESGGGLVQAGGSLRLSCAASGITFKRYAMGWYRPAPGKERELVAAITISAGSTYYADSVKGRFTLSRDNAKNTVYLQMNSLKPEDTAVYYCAAESYGSWYYYWGQGTQVTVSS”: the “polyreactivity (PSR sort gate)” value is recorded as “high polyreactivity”.
Regarding “QVQLVESGGGLVQAGGSLRLSCAASGITFKSYAMGWYRQAPGKERELVAAISRRGGSTYDADSVKGRFTISRDNAKNTVYLQMNSLKPEDTAVYYCNAAVGYYSYSYYTKVGVDYLGQGTQVTVSS”, the “polyreactivity (PSR sort gate)” value is recorded as “high polyreactivity”.
For “QVQLVESGGGLVQAGGSLRLSCAASGITFKYAMGWYRQAPGKERELVAAISGGGRTNYADSVKGRFTISRDNAKNTVYLQMNSLKPEDTAVYYCAAQGSRWWGFDYWGQGTQVTVSS”, the “polyreactivity (PSR sort gate)” value is on record as “high polyreactivity”.
As for “QVQLVESGGGLVQAGGSLRLSCAASGITFKYYAMGWYRQAPGKEREFVASISARGGGTYYADSVKGRFTISRDNAKNTVYLQMNSLKPEDTAVYYCAVDYRYGYFVYVHYEYWGQGTQVTVSS”, the “polyreactivity (PSR sort gate)” value was “high polyreactivity”.
For the sequence “QVQLVESGGGLVQAGGSLRLSCAASGITFLDYAMRWYRQAPGKERELVAAITKSVGSTYYADSVKGRFTISRDNAKNTVYLQMNSLKPEDTAVYYCAADPDSGQVPFDYWGQGTQVTVSS”, the “polyreactivity (PSR sort gate)” value is on record as “low polyreactivity”.
With “QVQLVESGGGLVQAGGSLRLSCAASGITFLWNARGWYRQAPGKERELVAVISIGGSTYYADSVKGRFTISRDNAKNTVYLQMNSLKPEDTAVYYCAATEGPAYDYEYWGQGTQVTVSS”, the “polyreactivity (PSR sort gate)” value is on record as “low polyreactivity”.
With “QVQLVESGGGLVQAGGSLRLSCAASGITFLYYAMGWYRQAPGQERELVAAITSSGGRTYYADSVKGRFTISRDNAKNTVYLQMNSLKPEDTAVYYCAADSRTYNGGYYWGQGTQVTVSS” the entry was “high polyreactivity”.
As for “QVQLVESGGGLVQAGGSLRLSCAASGITFMFYAMGWSRQAPGKVRELVAAISSSGGTTYYADSVKGRFTISRDNAKNTVYLQMNSLTPEDTAVYYCAARRVLASWYDYNYWGQGTQVTVSS”, the “polyreactivity (PSR sort gate)” value was “high polyreactivity”.
With “QVQLVESGGGLVQAGGSLRLSCAASGITFNGNAMGWYRQAPGKERELVAAITRTGTDTSYADSVKGRFTISRDNAKNTVYLQMNSLKPEDTAVYYCAAPPYNGYRYGTTGYYWGQGTQVTVSS” the entry was “low polyreactivity”.
For “QVQLVESGGGLVQAGGSLRLSCAASGITFNPNAMGWYRQAPGKERELVAVITYRGGSTYYADSVMGRFTISRDNAKNTVYLQMNSLKPADTAVYYCAAQYIGWHLYWYDYWGQGTQVTVSS”, the “polyreactivity (PSR sort gate)” value was “low polyreactivity”.
As for “QVQLVESGGGLVQAGGSLRLSCAASGITFNYYAMGWYRQAPGKERELVAAISLSGGRTRYADSVKGRFTISRDNAKNTVYLQMNSLKPEDTAVYYCAAYSFRYVPWPDGMGYWGQGTQVTVSS”, the entry is “high polyreactivity”; as for “QVQLVESGGGLVQAGGSLRLSCAASGITFNYYAMGWYRQAPGKERELVAAISWSGDRTYYADTVKGRFTISRDNAKYTVYLQMNSLKPEDTAVYYCAAKSVGEGDYWGQGTQVTVSS”, “low polyreactivity”.
Consider “QVQLVESGGGLVQAGGSLRLSCAASGITFPDNAMGWSRQAPGKERELVAAITYSGGSTYYADSVKGRFTISRDNAKNTVYLQMNSLKPEDTAVYYCAADWYWSSSYSDWEDYWGQGTQVTVSS”, for which the “polyreactivity (PSR sort gate)” value was “low polyreactivity”.
As for “QVQLVESGGGLVQAGGSLRLSCAASGITFPGNAMGWYRQAPGKERELVAVISFGDGGTYYADSVKGRFTISRDNAKNTVYLQMNSLKPEDTAVYYCATDYQSTSVWGGHFVINPYDYWGQGTQVTVSS”, the entry is “low polyreactivity”.
Regarding “QVQLVESGGGLVQAGGSLRLSCAASGITFPGYAMGWYRQAPGKERELVAVIRKSGTSTGGNTYYADSVKGRFTISRDNAKNTVYLQMNSLKPEDTAVYYCAKKYVWTHNYWGQGTQVTVSS”, the “polyreactivity (PSR sort gate)” value was “low polyreactivity”.
With “QVQLVESGGGLVQAGGSLRLSCAASGITFPINTMGWYRQAPGKERELVAGIDWTGGSTYYADSVKGRFTISRDNAKIPVYLLMNSLKPEHTAVYYCAKTRRRLLTRYDYWGQGTQVTVSS”, the “polyreactivity (PSR sort gate)” value is “low polyreactivity”.
With “QVQLVESGGGLVQAGGSLRLSCAASGITFPLYAMGWYRQAPGKERELVAAISRRGGRTYADSVKGRFTISRDNAKNTVYLQMNSLKPEDTAVYYCAAKGYSYSRDFYSWGQGTQVTVSS”, the “polyreactivity (PSR sort gate)” value was “high polyreactivity”.
Consider “QVQLVESGGGLVQAGGSLRLSCAASGITFPRYVMGWYRQAPGKERELVAAISTSGGSTYYADSVKGRFTISRDNAKNTVYLQMNSLKPEDTAVYYCAALDIYSSTYPVEYDYWGQGTQVTVSS”, for which the “polyreactivity (PSR sort gate)” value is “high polyreactivity”.
With “QVQLVESGGGLVQAGGSLRLSCAASGITFPSYAMGWYRQAPGKERELVATISRGDSTYYADSVKGRFTISRDNAKNTVYLQMNSLKPEDTAVYYCATRAYRLDPLQHDYWGQGTQVTVSS” the entry was “low polyreactivity”.
Consider “QVQLVESGGGLVQAGGSLRLSCAASGITFPVYAMGWYRQAPGKERELVATITSSGGRTYYADSVKGRFTISRDNAKNTVYLQMNSLKPEDTAVYYCAARPPYIRTLYYWGQGTQVTVSS”, for which the “polyreactivity (PSR sort gate)” value was “high polyreactivity”.
With “QVQLVESGGGLVQAGGSLRLSCAASGITFPYYAMGWYRQAPGKERELVAAINGNGGRTYYADSVKGRFTISRDNAKNNVYLDMNSLKPEDTAVYYCADRVVHVKGPRMDYWGQGTQVTLSS”, the “polyreactivity (PSR sort gate)” value is reported as “high polyreactivity”.
For “QVQLVESGGGLVQAGGSLRLSCAASGITFPYYAMGWYRQAPGKERELVAAISAGGTRTYYADSVKGRFTISRDNAKNTVYLQMNSLKPEDTAVYYCAARVWPIVQNYYWGQGTQVTVSS”, the “polyreactivity (PSR sort gate)” value is reported as “high polyreactivity”.
Consider “QVQLVESGGGLVQAGGSLRLSCAASGITFQGNAMGWYRQAPGKEREFVAAISWSGDSTYYADSVKGRFTISRDNAKNTVYLQMNSLKPEDTAVYYCAASRVIPSYPYYKYDYWGQGTQVTVSS”, for which the “polyreactivity (PSR sort gate)” value was “low polyreactivity”.
Take “QVQLVESGGGLVQAGGSLRLSCAASGITFQKYVMGWYRQAPGKEREFVAAITARGGTTYYADSVKGRFTISRDNAKNTVYLQMNSLKPEDTAVYYCAADLRRFQSYYYWGQGTQVTVSS”: the “polyreactivity (PSR sort gate)” value is recorded as “high polyreactivity”.
For the sequence “QVQLVESGGGLVQAGGSLRLSCAASGITFQRYAMGWYRQAPGKERELVAAITRGGSTNYADSVKGRFTISRDNAKNTVYLQMNSLKPEDTAVYYCAAGARYGYGYWGQGTQVTVSS”, the “polyreactivity (PSR sort gate)” value is reported as “high polyreactivity”.
Take “QVQLVESGGGLVQAGGSLRLSCAASGITFQYYAMGWYRQAPGKERELGAAITSSGVSTYYADSVKGRFTISRDNAKNTVYLQMNSLKPEDTAVYYCNTVVRGWSSSAYVYWGQGTQVTVSS”: the “polyreactivity (PSR sort gate)” value is given as “low polyreactivity”.
As to “QVQLVESGGGLVQAGGSLRLSCAASGITFRAYVMGWYRQAPGKERELVAAINRRGGSTYYADSVKGRFTISRDNEKNTVYLQMNSLKPEDTAVYYCGNGDFDYWGQGTQVTVSS”, the “polyreactivity (PSR sort gate)” value is given as “high polyreactivity”.
In the case of “QVQLVESGGGLVQAGGSLRLSCAASGITFRFYAMGWYRPAPGKEREFVAAISSRGGRTYYADSVKGRFTISRDNATNTVYLQMNSLKPEDTAVYYCAADFYYRTVATVTSVARYDYWGQGTQVTVSS”, the “polyreactivity (PSR sort gate)” value is recorded as “high polyreactivity”.
Turning to “QVQLVESGGGLVQAGGSLRLSCAASGITFRGNAMGWYRQAPGKERELVAAISRRGGNTNYADSVKGRFTISRDNAKNTVYLQMNSLKPEDTAVYYCAADITTYRRGRYEYEYWGQGTQVTVSS”, the “polyreactivity (PSR sort gate)” value was “high polyreactivity”.
With “QVQLVESGGGLVQAGGSLRLSCAASGITFRGYVMGWYRQAPGKERELVADISRRGGSTYADSVKGRFTISRDNAKNTVYLQMNSLKPEDTAVYYCNAGWRPHNLNQVGYSSYGYYYWGQGTQVTVSS” the entry was “high polyreactivity”.
With “QVQLVESGGGLVQAGGSLRLSCAASGITFRHYAMGWYRQAPGKEREFVAAITASGSSTYYADSVKGRFTISRDTAKNTVYLQMNSLKPEDTAVYYCAAAGYKYNSRGDYWGPGTQVTVSS” the entry was “high polyreactivity”.
With “QVQLVESGGGLVQAGGSLRLSCAASGITFRKYAMGWYRPAPGKERELVAAISSGGSRTYYADSVKGRFTISRDNAKNTVYLQMNSLKPEDTAVYYCAARKADTVFKFEYWGQGTQVTVSS” the entry was “high polyreactivity”; with “QVQLVESGGGLVQAGGSLRLSCAASGITFRKYAMGWYRQAPGKERELVAGIRYSGSSTYYADSVKGRFTISRDNAKNTVYLQMNSLTPEDTAVYYCAVYGTTRYATTYDYWGQGTQVTVSS”, “high polyreactivity”.
Turning to “QVQLVESGGGLVQAGGSLRLSCAASGITFRKYAMGWYRQAPGTERELVAAISAGGGRTFYADSVKGRFTISRDNAKNTVYLQMNSLKPEDTAVYYCNADLGIGYDYWGQGTQVTVSS”, the “polyreactivity (PSR sort gate)” value is “high polyreactivity”.
With “QVQLVESGGGLVQAGGSLRLSCAASGITFRLYAMGWYRPAPGKERELVAAISKRGGSTYYADSVKGRFTISRDNAKNTVYLQMNSLKPEDTAVYYCAADSGWEHRYDYWGQGTQVTVSS” the entry was “high polyreactivity”; with “QVQLVESGGGLVQAGGSLRLSCAASGITFRLYAMGWYRQAPGKEREFVAAISRRGGSTYYADSVKGRFTISRDNAKNTVYLQMNSLKPEDTAVYYCARYGLVYALGYWGQGTQVTVSS”, “high polyreactivity”.
Take “QVQLVESGGGLVQAGGSLRLSCAASGITFRNYAMGWYRQAPGKEREFVAAIRWGGGSTYYEDSGKGRFTISLDNAKNTVYLQMNSLKPEDTAVYYCATRGYSRNNPYSRPYDYWGQGTQVTVSS”: the “polyreactivity (PSR sort gate)” value was “high polyreactivity”.
For “QVQLVESGGGLVQAGGSLRLSCAASGITFRRYALGWYRQAPGKERELVAAITSGGGTYYADSVKGRFTISRDNAKNTVYLQMNSLKPEDTAVYYCNTYYHWLTMDYWGQGTQVTVSS”, the “polyreactivity (PSR sort gate)” value is listed as “high polyreactivity”.
For the sequence “QVQLVESGGGLVQAGGSLRLSCAASGITFRRYAMGWYRPAPGKERELVAVISVSGGRTHYADSVKGRFTISRDNAKNTVYLQMNSLKPEDTAVYYCAADFLRYPLGYWGQGTQVTVSS”, the “polyreactivity (PSR sort gate)” value was “high polyreactivity”.
